Molecular target: human GLP-1 receptor (human) (UniProt P43220)
Test: cell-based or functional assay

Chain of human GLP-1 receptor (human) (P43220 24-463): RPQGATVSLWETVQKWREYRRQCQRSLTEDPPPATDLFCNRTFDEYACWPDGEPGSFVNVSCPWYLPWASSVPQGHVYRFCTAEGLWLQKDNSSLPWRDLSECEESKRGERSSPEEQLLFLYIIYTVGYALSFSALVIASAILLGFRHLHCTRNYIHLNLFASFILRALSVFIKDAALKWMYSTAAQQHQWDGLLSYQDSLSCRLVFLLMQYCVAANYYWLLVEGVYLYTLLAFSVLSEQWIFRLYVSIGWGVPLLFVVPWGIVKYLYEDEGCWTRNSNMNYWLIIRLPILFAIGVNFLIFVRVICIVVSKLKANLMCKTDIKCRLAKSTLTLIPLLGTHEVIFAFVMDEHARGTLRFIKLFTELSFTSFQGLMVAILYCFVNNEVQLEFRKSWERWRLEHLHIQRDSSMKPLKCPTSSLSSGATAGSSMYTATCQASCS

Question: For “Arg^34Lys^26-(N-ε-(γ-Glu(N-α-hexadecanoyl)))-GLP-1(7-37) (peptide)”, which In vitro activity relative to Val^8-GLP-1(7-37)OH (EC50 potency, CRE-BLAM β-lactamase reporter in HEK-293 cells expressing human GLP-1 receptor) (fold relative to Val^8-GLP-1(7-37)OH) is on record?
Answer: 1.92

Question: Which In vitro activity relative to Val^8-GLP-1(7-37)OH (EC50 potency, CRE-BLAM β-lactamase reporter in HEK-293 cells expressing human GLP-1 receptor) (fold relative to Val^8-GLP-1(7-37)OH) does the source give for GLP-1(7-37)OH (peptide) here?
Answer: 2.06

Question: With Gly^8-GLP-1(7-37)OH (peptide) as the substance, how does the In vitro activity relative to Val^8-GLP-1(7-37)OH (EC50 potency, CRE-BLAM β-lactamase reporter in HEK-293 cells expressing human GLP-1 receptor) (fold relative to Val^8-GLP-1(7-37)OH) read?
Answer: 1.67

Question: With Val^8-Ala^27-GLP-1(7-37)OH (peptide) as the substance, how does the In vitro activity relative to Val^8-GLP-1(7-37)OH (EC50 potency, CRE-BLAM β-lactamase reporter in HEK-293 cells expressing human GLP-1 receptor) (fold relative to Val^8-GLP-1(7-37)OH) read?
Answer: 1

Question: With Val^8-Arg^26-GLP-1(7-37)OH (peptide) as the substance, how does the In vitro activity relative to Val^8-GLP-1(7-37)OH (EC50 potency, CRE-BLAM β-lactamase reporter in HEK-293 cells expressing human GLP-1 receptor) (fold relative to Val^8-GLP-1(7-37)OH) read?
Answer: 1.47

Question: How did the In vitro activity relative to Val^8-GLP-1(7-37)OH (EC50 potency, CRE-BLAM β-lactamase reporter in HEK-293 cells expressing human GLP-1 receptor) (fold relative to Val^8-GLP-1(7-37)OH) turn out when Val^8-GLP-1(7-36)NH2 (peptide) was run?
Answer: 1.06

Question: With Val^8-GLP-1(7-37)OH (peptide) as the substance, how does the In vitro activity relative to Val^8-GLP-1(7-37)OH (EC50 potency, CRE-BLAM β-lactamase reporter in HEK-293 cells expressing human GLP-1 receptor) (fold relative to Val^8-GLP-1(7-37)OH) read?
Answer: 1

Question: Val^8-Glu^22-GLP-1(7-37)OH (peptide) was tested. Which In vitro activity relative to Val^8-GLP-1(7-37)OH (EC50 potency, CRE-BLAM β-lactamase reporter in HEK-293 cells expressing human GLP-1 receptor) (fold relative to Val^8-GLP-1(7-37)OH) did it give?
Answer: 3.33

Question: How did the In vitro activity relative to Val^8-GLP-1(7-37)OH (EC50 potency, CRE-BLAM β-lactamase reporter in HEK-293 cells expressing human GLP-1 receptor) (fold relative to Val^8-GLP-1(7-37)OH) turn out when Val^8-Leu^16-GLP-1(7-37)OH (peptide) was run?
Answer: 1.13

Question: Which In vitro activity relative to Val^8-GLP-1(7-37)OH (EC50 potency, CRE-BLAM β-lactamase reporter in HEK-293 cells expressing human GLP-1 receptor) (fold relative to Val^8-GLP-1(7-37)OH) does the source give for Val^8-Lys^22-GLP-1(7-37)OH (peptide) here?
Answer: 1.22

Question: For Val^8-Trp^12-GLP-1(7-37)OH (peptide), which In vitro activity relative to Val^8-GLP-1(7-37)OH (EC50 potency, CRE-BLAM β-lactamase reporter in HEK-293 cells expressing human GLP-1 receptor) (fold relative to Val^8-GLP-1(7-37)OH) is on record?
Answer: 1.07

Question: For Val^8-Tyr^12-GLP-1(7-37)OH (peptide), which In vitro activity relative to Val^8-GLP-1(7-37)OH (EC50 potency, CRE-BLAM β-lactamase reporter in HEK-293 cells expressing human GLP-1 receptor) (fold relative to Val^8-GLP-1(7-37)OH) is on record?
Answer: 1.73

Source: US20040053819A1
